Measurements as given in patent publication US10081665B2, “Peptides and combination of peptides for use in immunotherapy against various tumors” (immatics biotechnologies GmbH, priority 2015, dated 2018).

Target: HLA-A*02:01 (Homo sapiens, UniProt P04439, D140Y/D185E/D98H/E176V/E277Q/G131W/G231S/I119V/I121R/I166T/I218V/L300P/L318F/N151K/N90K/P208A/P217A/Q86G/Q94H/R138H/R169H/T345S)
Experiment: MHC binding assay (UV-ligand exchange, beta2m ELISA)
Conditions: binding to HLA-A*02:01, β2m ELISA
Summary of the method: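 Peptide-MHC complexes made by UV-ligand exchange of a UV-cleavable peptide for test peptide; exchange yield measured by β2m ELISA on streptavidin-coated plates with samples diluted 100-fold, HRP anti-β2m and TMB read at 450 nm. Refolded HLA-A*02:01/MLA-001 monomers (15-500 ng/ml) served as standards.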

Substance	Peptide exchange (MHC class I binding score, peptide exchange yield)
208 (HLNNDRNPL; listed as Homo sapiens) [compound 208]	++ (≥20% = ++)
210 (GLAGDNIYL; listed as Homo sapiens) [compound 210]	+++ (≥50 = +++)
211 (LLTTVLINA; listed as Homo sapiens) [compound 211]	+++ (≥50 = +++)
212 (MTLSEIHAV; listed as Homo sapiens) [compound 212]	++ (≥20% = ++)
213 (ILAVDGVLSV; listed as Homo sapiens) [compound 213]	+++ (≥50 = +++)
214 (ALFETLIQL; listed as Homo sapiens) [compound 214]	+++ (≥50 = +++)
215 (QIADIVTSV; listed as Homo sapiens) [compound 215]	++ (≥20% = ++)
216 (ALSTVTPRI; listed as Homo sapiens) [compound 216]	++ (≥20% = ++)
217 (LLWPSSVPA; listed as Homo sapiens) [compound 217]	+++ (≥50 = +++)
218 (SLTGANITV; listed as Homo sapiens) [compound 218]	+++ (≥50 = +++)
219 (GVVPTIQKV; listed as Homo sapiens) [compound 219]	++ (≥20% = ++)
220 (ALSELERVL; listed as Homo sapiens) [compound 220]	+++ (≥50 = +++)
221 (IMLNSVEEI; listed as Homo sapiens) [compound 221]	++ (≥20% = ++)
222 (LLTGVFAQL; listed as Homo sapiens) [compound 222]	++ (≥20% = ++)
223 (ALHPVQFYL; listed as Homo sapiens) [compound 223]	+++ (≥50 = +++)
224 (LLFDWSGTGRADA; listed as Homo sapiens) [compound 224]	+++ (≥50 = +++)
225 (FLPQPVPLSV; listed as Homo sapiens) [compound 225]	+++ (≥50 = +++)
226 (SLAGNLQEL; listed as Homo sapiens) [compound 226]	+++ (≥50 = +++)
227 (SEMEELPSV; listed as Homo sapiens) [compound 227]	+ (≥10% = +)
228 (SLLELDGINLRL; listed as Homo sapiens) [compound 228]	+++ (≥50 = +++)
229 (YLYELEHAL; listed as Homo sapiens) [compound 229]	++ (≥20% = ++)
230 (KLLNMIFSI; listed as Homo sapiens) [compound 230]	+++ (≥50 = +++)
231 (LLDDIFIRL; listed as Homo sapiens) [compound 231]	+++ (≥50 = +++)
234 (VLLNEILEQV; listed as Homo sapiens) [compound 234]	++++ (≥75% = ++++)
235 (SLLNQPKAV; listed as Homo sapiens) [compound 235]	++ (≥20% = ++)
237 (ALLEQTGDMSL; listed as Homo sapiens) [compound 237]	+++ (≥50 = +++)
